Patent US20230212549A1, “COMPOUNDS COMPRISING A […] LIGAND AND USE THEREOF” (priority 2021, published 2023)
Bridge positions count the residues as written; N and C are the ends.

Key:
Assay in all cases: cell-based or functional assay
[1] = molecular target: T1, Ubiquitin carboxyl-terminal hydrolase 8, P40818
T1 chain: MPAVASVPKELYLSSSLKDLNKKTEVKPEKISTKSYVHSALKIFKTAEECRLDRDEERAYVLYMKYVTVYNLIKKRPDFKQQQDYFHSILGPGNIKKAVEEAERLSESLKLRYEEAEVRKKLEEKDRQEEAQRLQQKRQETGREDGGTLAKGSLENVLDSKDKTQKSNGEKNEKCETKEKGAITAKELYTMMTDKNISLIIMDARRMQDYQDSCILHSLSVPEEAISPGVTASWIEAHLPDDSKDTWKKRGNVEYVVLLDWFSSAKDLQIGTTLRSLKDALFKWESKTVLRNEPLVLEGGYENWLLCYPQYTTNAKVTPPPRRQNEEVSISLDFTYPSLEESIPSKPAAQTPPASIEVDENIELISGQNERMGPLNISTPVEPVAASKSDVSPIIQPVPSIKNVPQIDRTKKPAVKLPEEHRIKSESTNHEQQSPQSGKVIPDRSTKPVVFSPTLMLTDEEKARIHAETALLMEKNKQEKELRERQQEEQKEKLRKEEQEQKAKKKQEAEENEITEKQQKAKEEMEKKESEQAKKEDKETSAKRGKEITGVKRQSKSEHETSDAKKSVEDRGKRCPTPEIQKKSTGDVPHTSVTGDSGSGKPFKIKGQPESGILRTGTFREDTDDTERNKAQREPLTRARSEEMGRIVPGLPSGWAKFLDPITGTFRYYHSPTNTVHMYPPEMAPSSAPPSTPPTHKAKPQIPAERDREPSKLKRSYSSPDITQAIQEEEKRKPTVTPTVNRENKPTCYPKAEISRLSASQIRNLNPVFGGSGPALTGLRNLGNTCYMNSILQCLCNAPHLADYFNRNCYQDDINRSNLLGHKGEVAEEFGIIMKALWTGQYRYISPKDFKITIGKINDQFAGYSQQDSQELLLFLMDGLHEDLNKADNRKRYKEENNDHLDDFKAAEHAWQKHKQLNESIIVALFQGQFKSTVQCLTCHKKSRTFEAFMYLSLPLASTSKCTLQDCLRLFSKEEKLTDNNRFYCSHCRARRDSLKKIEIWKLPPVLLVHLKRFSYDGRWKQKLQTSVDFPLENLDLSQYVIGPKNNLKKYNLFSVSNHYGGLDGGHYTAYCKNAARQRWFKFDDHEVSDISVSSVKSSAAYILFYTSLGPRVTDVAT

[2] = molecular target: Matrix metalloprotease 9 (mutant Q279R), P14780
Sequence of Matrix metalloprotease 9 (mutant Q279R), P14780 (P14780 107-707 Q279R): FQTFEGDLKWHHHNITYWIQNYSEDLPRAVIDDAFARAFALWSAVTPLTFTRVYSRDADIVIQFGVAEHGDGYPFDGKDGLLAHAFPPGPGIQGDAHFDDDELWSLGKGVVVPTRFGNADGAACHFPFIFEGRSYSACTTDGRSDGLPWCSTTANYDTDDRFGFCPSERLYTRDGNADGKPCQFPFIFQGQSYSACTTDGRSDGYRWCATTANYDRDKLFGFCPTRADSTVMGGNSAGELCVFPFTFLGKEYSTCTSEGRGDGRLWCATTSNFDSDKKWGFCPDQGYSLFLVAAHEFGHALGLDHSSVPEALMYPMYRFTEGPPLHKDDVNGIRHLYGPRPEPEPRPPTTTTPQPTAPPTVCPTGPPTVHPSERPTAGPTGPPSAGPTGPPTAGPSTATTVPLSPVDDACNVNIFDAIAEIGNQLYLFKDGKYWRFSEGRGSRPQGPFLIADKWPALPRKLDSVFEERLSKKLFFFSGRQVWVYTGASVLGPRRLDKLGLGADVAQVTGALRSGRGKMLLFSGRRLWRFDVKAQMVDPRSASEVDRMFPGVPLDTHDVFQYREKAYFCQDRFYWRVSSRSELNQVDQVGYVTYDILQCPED

[3] = molecular target: T2, Ubiquitin carboxyl-terminal hydrolase 5, P45974
T2 chain: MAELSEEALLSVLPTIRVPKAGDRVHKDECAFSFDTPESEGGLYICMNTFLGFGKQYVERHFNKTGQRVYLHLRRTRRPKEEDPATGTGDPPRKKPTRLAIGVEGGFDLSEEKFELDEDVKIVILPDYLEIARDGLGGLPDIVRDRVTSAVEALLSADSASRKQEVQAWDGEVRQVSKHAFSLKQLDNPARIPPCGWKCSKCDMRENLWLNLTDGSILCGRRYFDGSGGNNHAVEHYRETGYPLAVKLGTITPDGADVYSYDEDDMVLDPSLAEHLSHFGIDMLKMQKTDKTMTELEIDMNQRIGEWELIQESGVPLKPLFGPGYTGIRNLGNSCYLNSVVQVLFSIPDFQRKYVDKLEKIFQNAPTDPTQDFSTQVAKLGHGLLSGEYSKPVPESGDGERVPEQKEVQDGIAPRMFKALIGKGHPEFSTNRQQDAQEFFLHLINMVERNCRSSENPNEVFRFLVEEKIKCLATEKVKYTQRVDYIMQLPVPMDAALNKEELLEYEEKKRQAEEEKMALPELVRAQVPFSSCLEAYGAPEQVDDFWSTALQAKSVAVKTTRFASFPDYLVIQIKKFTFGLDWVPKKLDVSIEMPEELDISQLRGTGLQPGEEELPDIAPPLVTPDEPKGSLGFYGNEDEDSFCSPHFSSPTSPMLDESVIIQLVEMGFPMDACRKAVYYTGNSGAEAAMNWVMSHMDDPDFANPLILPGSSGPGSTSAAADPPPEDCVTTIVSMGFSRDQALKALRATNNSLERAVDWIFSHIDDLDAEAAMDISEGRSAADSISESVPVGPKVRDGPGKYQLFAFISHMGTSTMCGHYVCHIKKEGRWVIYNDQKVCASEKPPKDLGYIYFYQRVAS

| Binder | Percentage inhibition (%) at 1 µM [1] | Percentage inhibition (%) at 10 µM [1] | Percentage inhibition (%) at 1 µM [2] | Percentage inhibition (%) at 10 µM [2] | Percentage inhibition (%) at 1 µM [3] | Percentage inhibition (%) at 10 µM [3] |
| --- | --- | --- | --- | --- | --- | --- |
| Hex-CPPTQFC-OH (bridge 1-7; not fully specified (bridges); printed as Hex-[Cys(tMeBn(DOTA-AET))-Pro-Pro-Thr-Gln-Phe-Cys]-OH) [Hex-[Cys(tMeBn(DOTA-AET))-Pro-Pro-Thr-Gln-Phe-Cys]-OH] | 2% | 1% | 3% | 2% | -4% | -2% |
| Hex-CPPTQFCD-NH2 (bridge 1-7; not fully specified (bridges); printed as Hex-[Cys(tMeBn(DOTA-PP))-Pro-Pro-Thr-Gln-Phe-Cys]-Asp-NH2) [Hex-[Cys(tMeBn(DOTA-PP))-Pro-Pro-Thr-Gln-Phe-Cys]-Asp-NH2] | -3% | 6% | 3% | 2% | 3% | 46% |
